{"source": "patent US6582902B1", "about": "“Method for deriving epitopes” (priority 1992, dated 2003)", "tested_on": "anti-g10 serum", "experiment": "Immunoprecipitation of [32P]-labeled in vitro transcribed RNA with anti-g10 serum", "format": "binding, rabbit", "settings": "FIG. 4; compared with protein A Sepharose beads alone and pre-immune serum", "method": "Various antisera were used to precipitate either [32P] labeled in vitro transcribed D10 RNA or control transcripts. Bound RNA was analyzed on a denaturing 6% polyacrylamide gel by autoradiography. Lanes 1-4 are precipitations of D10 RNA with the following antisera: 1, anti-g10 serum; 2, preimmune serum; 3, no antibody; 4, anti-g10 serum. Other transcripts were precipitated with the anti-g10 serum as follows: 5, a control RNA identical to the D10 epitope but with loop sequence 5′-CACCAUAUAA-3′(SEQ ID NO:5); 6, an unrelated RNA; 7, an RNA containing the loop sequence 5′-CUGACCCCGU-3′(SEQ ID NO:6); 8-11, supernatants from the immunoprecipitations shown in lanes 4-7, diluted to approximate radioactive equivalents.\nIn vitro transcribed [^32P] radiolabeled RNA was immunoprecipitated with anti-g10 serum or with an anti-U1 RNA serum (EW). Bound RNA was analyzed using a denaturing 6% acrylamide gel and autoradiography: Panel A: The D10 DNA construct (FIG. 2) was cloned into the BamHI site of PGEM-3zf (+) to produce tagged vector RNA, and transcripts with different 3′termini were generated with SP6 RNA polymerase. […] For unexplained reasons, a small amount of endogenous U1 RNA was detected in the presence of total HeLa cell extract (lanes 12-14). […]"}
{"molecule": "D10 RNA: single RNA species selected from the degenerate pool by anti-g10 serum (SEQ ID NO:3); U1 stem II with loop UGGUGGAGCA (nucleic acid, chemistry not given here, U1 stem II with loop UGGUGGAGCA) GGGCCACCAACGACAUUGGGCGAGGCUUAUCCUGGUGGAGCAGGAUGUGCUGACCCCGUUGAUAUAAAUAGUGCCCAUGGAUC", "values": [{"measurement": "binding / recognition of RNA by anti-g10 serum", "result": "bound only to the anti-g10 serum"}]}
